Biological target: T cell surface antigens CTLA4 and PD-1
Test: flow cytometry, PHA-stimulated CD4+ T cells, antibody 100 nM (PBS 8.39)

Substance hIgG (control) (antibody) has an MFI (fluorescence intensity) of 10.2.
